B1: 6-mer GCGCGC duplex (dsDNA)
DNA 1: GCGCGC
DNA 2: GCGCGC
B2: Streptococcus pneumoniae ParE44 ATPase domain (residues 1-402) (domain or fragment, UniProt Q59961 1-402, looked up)
chain: MSKKEININNYNDDAIQVLEGLDAVRKRPGMYIGSTDGAGLHHLVWEIVDNAVDEALSGFGDRIDVTINKDGSLTVQDHGRGMPTGMHAMGIPTVEVIFTILHAGGKFGQGGYKTSGGLHGVGSSVVNALSSWLEVEITRDGAVYKQRFENGGKPVTTLKKIGTAPKSKTGTKVTFMPDATIFSTTDFKYNTISERLNESAFLLKNVTLSLTDKRTNEAIEFHYENGVQDFVSYLNEDKEILTPVLYFEGEDNGFQVEVALQYNDGFSDNILSFVNNVRTKDGGTHETGLKSAITKVMNDYARKTGLLKEKDKNLEGSDYREGLAAVLSILVPEEHLQFEGQTKDKLGSPLARPVVDGIVADKLTFFLMENGELASNLIRKAIKARDAREAARKARDESRNG
notes: ParE subunit of topoisomerase IV, Streptococcus pneumoniae, UniProt Q59961, residues 1-402 (ATPase domain); Crystallised as a closed dimer with AMP-PNP, Mg2+ and duplex DNA; also called ParE ATPase domain; N-terminal ParE44; source: E. coli BL21 λDE3, purified (Ni-NTA)
B3: 14-mer T-segment duplex (dsDNA)
DNA 1: GCATATATATATGC
DNA 2: GCATATATATATGC

Columns and labels:
[1] = target: Streptococcus pneumoniae topoisomerase IV ParC subunit, full length (Streptococcus pneumoniae) (UniProt P72525)
[2] = target: T1, ParE44 (topoisomerase IV ParE ATPase domain) (Streptococcus pneumoniae, UniProt Q59961 1-402); assay: X-ray crystallography (1.97 A); AMP-PNP, Mg2+; side-bound outside the hole, two duplexes per dimer; Co-crystallization: protein:DNA 1:2.2, 10 mM MgCl2, 2 mM AMP-PNP, protein in 20 mM Tris-HCl pH 7.5, 100 mM NaCl, 1 mM 2-mercaptoethanol; 14-mer: 50 mM HEPES pH; details: protein: recombinant; tags: C-terminal 6xHis; chain copies: 2; blunt; self-complementary
[3] = target: the molecule itself; assay: crystal structure; ParE44 co-crystallised with 14-mer duplex DNA 5'-…-3', 2 mM AMP-PNP, 10 mM MgCl2; sitting drop, 50 mM HEPES pH 7.0, 5 mM MgCl2, 25% PEG MME 550; through-hole DNA bound complex, space group C2, 2.83 Å
[4] = target: T1, ParE44 (topoisomerase IV ParE ATPase …); assay: X-ray crystallography (2.83 A); AMP-PNP, Mg2+; DNA kinked in the dimer hole, one duplex per dimer; putative intercalated AMP-PNP; Co-crystallization: protein:DNA 1:2.2, 10 mM MgCl2, 2 mM AMP-PNP, protein in 20 mM Tris-HCl pH 7.5, 100 mM NaCl, 1 mM 2-mercaptoethanol; 14-mer: 50 mM HEPES pH; details: protein: recombinant; tags: C-terminal 6xHis; chain copies: 2; blunt; self-complementary

| Molecule | Cleavage: ATP-independent quinolone-promoted DNA cleavage activity of topo IV reconstituted from ParC and ParE, relative to wild type [1] [%] | further results |
| --- | --- | --- |
| Streptococcus pneumoniae topoisomerase IV ParE subunit, wild type, full length (from UniProt Q59961 1-647) (enzyme) | 100 |  |
| ParE S268A, full length (from UniProt Q59961 1-647) (enzyme) | 100 |  |
| ParE K346Q, full length (from UniProt Q59961 1-647) (enzyme) | 100 |  |
| ParE K281Q/D282A, full length (from UniProt Q59961 1-647) (enzyme) | 100 |  |
| ParE R396Q, full length (from UniProt Q59961 1-647) (enzyme) | 100 |  |
| ParE R400Q, full length (from UniProt Q59961 1-647) (enzyme) | 100 |  |
| ParE R321Q, full length (from UniProt Q59961 1-647) (enzyme) | 100 |  |
| ParE K346Q/R353A, full length (from UniProt Q59961 1-647) (enzyme) | 100 |  |
| ParE R353Q, full length (from UniProt Q59961 1-647) (enzyme) | 100 |  |
| ParE R353A, full length (from UniProt Q59961 1-647) (enzyme) | 100 |  |
| ParE K291Q, full length (from UniProt Q59961 1-647) (enzyme) | 100 |  |
| ParE K313Q/E316Q, full length (from UniProt Q59961 1-647) (enzyme) | 100 |  |
| ParE D269V, full length (from UniProt Q59961 1-647) (enzyme) | 100 |  |
| B1 |  | binding result [2]: binds |
| B2 |  | binding result [3]: binds |
| B3 |  | binding result [4]: binds |

— publication PMC6030046, “Trapping of the transport-segment DNA by the ATPase domains of a type II topoisomerase” (Nature Communications, 2018)
